According to the supplement of paper PMC9170038:

Tested on: MS2 coat protein
Experiment: apparent KD of MS2 coat protein; designed switch direction (-1 OFF switch, 1 ON switch): -1; higher = weaker reporter binding
How it was run: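 Stalled E. coli RNA polymerase transcribed designed RNA switches on Illumina chips, which were then titrated with SNAP-549-labelled MS2 coat protein, doubling from 0.7 or 1.5 nM to 3 µM. Steps lasted from 0.8–1.5 h at the lowest concentration to 10–20 min at the highest. The apparent KD is each design's median over clusters of curve-fitted normalised fluorescence.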

[1] = input ligand: microRNA oligo, concentration not stated
[2] = Eterna round: R95, input ligand: FMN 200 uM
[3] = Eterna round: R95, input ligand: microRNA oligo, concentration not stated
[4] = Eterna round: R95, input ligand: none

Sequence	apparent KD of MS2 coat protein (input ligand: FMN 200 uM) [µM]	apparent KD of MS2 coat protein (input ligand: none) [µM]	apparent KD of MS2 coat protein [1] [µM]	apparent KD of MS2 coat protein [2] [µM]	apparent KD of MS2 coat protein [3] [µM]	apparent KD of MS2 coat protein [4] [µM]
GGCAUGUAAGGAUAUGCCACGGAGGCCUUUGGCCUCCGAAAGCAGAAGGUACAUGAGGAUCACCCAUGUGAUAA [jl-ex4-4.59 ViennaUCT mod] (Eterna round: R97, puzzle: Exclusion 4)	0.467	0.39	–	–	–	–
GAAUGAGAGCAGGAUAUCUUAAAAAUGUAUCAAAGAGAAGGGCUCACAUGAGGAUCACCCAUGUGGUCCUAGAU [jl-ex6-4.67 jandersonlee mod] (Eterna round: R97, puzzle: Exclusion 6)	0.152	0.0225	–	–	–	–
AGAUCUAGGACAGGAUAUACCGAUGGCUUCAUCGAAGAUGAAGCCAUCACAUGAGGAUCACCCAUGUAGAAGGGUCCUAGAUCA [Omei Exc(NG) 2Av9] (Eterna round: R96, puzzle: Exclusion NG 2)	0.0115	0.0137	0.00995	–	–	–
ACGAAACAUGAGGAUCACCCAUGUGAGGAUAUGUAAAUAGUAAACAAAUAAGAAAUAAACAGAAGGCACACAGG [JR_Exclusion1_Sub004] (puzzle: Exclusion 1)	–	–	–	0.0572	0.0263	0.0282
AAUAAAGGAGGAUAUACUAAAAUAUGAAUAAAAUAAAUAAAACAUGAGGAUCACCCAUGUAGAAGGCCUAAUAA [JMF's Not so obvious solution 3] (puzzle: Exclusion 2)	–	–	–	0.0228	0.0239	0.0252
GCGUUCUGAGGAUAUACAUGAGGAUCACCCAUGUUGAGAAGAAAGUAUAAAAGAUUGUGUAGAAGGCAGAGUGC [JR_Ex3_Sub070] (Eterna round: R97, puzzle: Exclusion 3)	0.112	0.0384	–	–	–	–
UAUUAGUAAGGAUAUCCUUGCAUGGACGAAAGUCCAUGCAAGGAGAAGGUACAUGAGGAUCACCCAUGUUUAUU [Mod of Fisker 15 - Jieux - Exclusion 4] (Eterna round: R97, puzzle: Exclusion 4)	0.018	0.0174	–	–	–	–
UUAAUUAAUUAUAUAAGAUCACAUGAGGAUCACCCAUGUAUAUAGGAUAUCAGCUCGUUUAGAGCUGAGAAGGAUAUACAAUAU [ExNG3/3-B2] (Eterna round: R96, puzzle: Exclusion NG 3)	0.0418	0.209	0.497	–	–	–
UUAGGCGUCUUUGCUCGUCUUAUUUGGAGAUGACUGUUAACAUGAGGAUCACCCAUGUGUGUGGGAGCUUUGCAGUU [JR_SV3TOV2_Sub022] (puzzle: Sensor v3, turn-off variant 2)	–	–	–	0.215	0.377	0.271
AUGGAGGCAGGAUAUGAGCGUACGAACAUGAGGAUCACCCAUGUGAGAUCUCCUGGUAGCUCAGAAGGGCUAUCUC [Eternabot (Original) Solution 5] (Eterna round: R97, puzzle: Exclusion 5)	0.253	0.0674	–	–	–	–
AAGUGCGAAGGAUAUACAUGAGGAUCACCCAUGUUCACCAAAACACAGGUCUCAGACUGUAGAAGGUCGCACAG [Eternabot (Original) Solution 45] (Eterna round: R97, puzzle: Exclusion 3)	0.605	0.0598	–	–	–	–
UCGAUGUGAGGAUAUAACAGGACGAACUCUUAAUAGUACGGUUAGAAGGCACAUGAGGAUCACCCAUGUGACGA [EX4 B.27] (Eterna round: R97, puzzle: Exclusion 4)	0.0401	0.0177	–	–	–	–
UUAAAGGCAGGAUAUACAUUUUUUUUAUUAUCCUCAUUAUUACAUGAGGAUCACCCAUGUAGAAGGGCCAAAUU [Mat - Exclusion 2 - Mod of Hog - D85] (puzzle: Exclusion 2)	–	–	–	–	0.0576	–
UCGGCGUCAGGAUAUCCAAUAUAUGACAUGAGGAUCACCCAUGUUUCCACUCGUACCUCCGGAGAAGGGACGAAUA [Ex5 #91] (Eterna round: R97, puzzle: Exclusion 5)	0.0309	0.0357	–	–	–	–
CGUCAGUGAGGAUAUGGUAACAUUUACAUGAGGAUCACCCAUGUUUCAUGGGACUAAAGACUAGAAGGCACUGACG [JR_Ex5_Sub031] (Eterna round: R97, puzzle: Exclusion 5)	0.0809	0.0369	–	–	–	–
AUUAAGUGAGGAUAUACAAGAUCGCUUACCGCCAAAGGCGGACAUGAGGAUCACCCAUGUAGAAGGCACAAAUU [Vesoanor] (puzzle: Exclusion 2)	–	–	–	–	0.0409	–
CGUUGGUCAGGAUAUGGUGGGCUGGUCGCGCGGCCGGGUGGCUAGAAGGGACAUGAGGAUCACCCAUGUACGGC [excls4-IX] (Eterna round: R96, puzzle: Exclusion 4)	0.0603	0.0489	0.0301	–	–	–

Sequence	apparent KD of MS2 coat protein (input ligand: FMN 200 uM) [µM]	apparent KD of MS2 coat protein (input ligand: none) [µM]	apparent KD of MS2 coat protein [1] [µM]	apparent KD of MS2 coat protein [2] [µM]	apparent KD of MS2 coat protein [3] [µM]	apparent KD of MS2 coat protein [4] [µM]
UAAGUGUGAGGAUAUGGUAAAGAUAAGAUGAUGAAAGAACUCCAGAAGGCACAUGAGGAUCACCCAUGUAGAUG [JL-ex4-2.11 Jieux mod] (puzzle: Exclusion 4)	–	–	–	–	0.0353	–
AAUUUUGGAGGAUAUACAUCCCAGGAUCCAGUAAUUAAGUUACAUGAGGAUCACCCAUGUAGAAGGUCAAGAGU [Eternabot (L1) Solution 75] (Eterna round: R97, puzzle: Exclusion 2)	0.0533	0.0444	–	–	–	–
AAUUAGUGUGUGAGGAUAUUGGUGGAAUGACUUAUUAAGAAGGCACAUGAGGAUCACCCAUGUGGGAAGUCACG [JR_BMEx4_Sub014] (Eterna round: R97, puzzle: Brourd's mod of Exclusion 4)	0.0101	0.012	–	–	–	–
CCGUUCCGUGUAGGAUAUUGGCCUACCACGGGCCGAGAAGGACAUGAGGAUCACCCAUGUAUGCUAUUAUCGCGCGUGGCGCCC [Design 99] (Eterna round: R96, puzzle: Exclusion NG 1)	0.024	0.0218	0.0154	–	–	–
UAGCAGAGAGGAUAUACAUUCAUCACCCGCGCAUCAUGCGCACAUGAGGAUCACCCAUGUAGAAGGCUCGUGCC [EX2 C.27] (Eterna round: R97, puzzle: Exclusion 2)	0.0743	0.0282	–	–	–	–
GCCGGAUAAGUGAGGAUAUACCUAUGGAUACAUAGGUAGAAGGCACAUGAGGAUCACCCAUGUACCUCUCCGGC [JL-BMX4-4.18 Eli mod] (Eterna round: R97, puzzle: Brourd's mod of Exclusion 4)	0.0875	0.0148	–	–	–	–
CAAAUCAGGCGAGGAUAUCCGAAAGGAAGUGUAGGAGAAGGCGCGAAAUAUAAAACAUGAGGAUCACCCAUGUCGUCCCGUGUG [PowerStrip EXNG 1.21] (Eterna round: R96, puzzle: Exclusion NG 1)	0.169	0.13	0.117	–	–	–
UUUUUCAGGCCAGAUCCUCACAUGAGGAUCACCCAUGUGCUCGUCUGUUUUCGCUCUAGCUUUUUUUUGGUAGUGCU [Level Boss var2-16] (puzzle: Sensor v3, turn-off variant 1)	–	–	–	0.164	0.0318	0.243
UCUAUUUUGCGAGGAUAUCGACCAUUCCUCUUUACAUGAGGAUCACCCAUGUUCUUUUUCUACAACGAGAAGGCGCUCAUAGUU [JR_ExcNG2_Sub062] (Eterna round: R96, puzzle: Exclusion NG 2)	0.0735	0.0616	0.0677	–	–	–
AGCGAGGAGACAGGAUAUGAGAAUAGAUAGAACUCAGAAGGGUCACAUGAGGAUCACCCAUGUAAAGUCUUGAGGCUGCGUGGU [Prohibition 8 - Jieux - Exclusion NG 1] (Eterna round: R96, puzzle: Exclusion NG 1)	0.239	0.0882	0.0843	–	–	–
UCUCGCUGGCGAGGAUAUCCUGUGCGGUUCCGGCUCGUGUCUGUUACAUGAGGAUCACCCAUGUGGGAGAAGGUGCCUGUGGCU [Design 94] (Eterna round: R96, puzzle: Exclusion NG 2)	–	–	0.022	–	–	–
UGCAGACGAGGAUAUAGAUUUAGAUACAUGAGGAUCACCCAUGUAUAUAUGUAUUUAGAUUUAGAAGGCGUCUGCU [E5/15-A4] (Eterna round: R97, puzzle: Exclusion 5)	0.24	0.283	–	–	–	–
GUGGAACAUGAGGAUCACCCAUGUGAGGAUAUGUGUGAAUAGAGGAGAAGAAGAGAGAACAGAAGGCACGGAGG [JR_Exclu1_Sub066] (puzzle: Exclusion 1)	–	–	–	0.0533	0.0734	0.0933
GGUACUAACACGAAAGUGUUAGUACUAUAGGUUUGUGUUACAUGAGGAUCACCCAUGUCCUCAUAAGCUCGUCUUGU [JL-sv3-2.21 mat747 mod] (puzzle: Sensor v3, turn-off variant 2)	–	–	–	0.455	0.17	0.403
AAGCCUGGCUCAGGAUAUACAUGAGGAUCACCCAUGUUCUCAGUGAGGCAAGAUAACAACACGACGUAGAAGGGAGCUAGGCCG [Eternabot solution 5] (Eterna round: R96, puzzle: Exclusion NG 2)	0.0817	0.04	0.0179	–	–	–
ACUUAUUGAGGAUAUACAGAUUAUUACAUGAGGAUCACCCAUGUUCUUCAAUGUAUAUAUGUAGAAGGCAGAGGAU [Mat - Exclusion 5 - JL Mod - D13] (Eterna round: R97, puzzle: Exclusion 5)	0.221	0.0737	–	–	–	–
UUCCUACAUGAGGAUCACCCAUGUCAGGAUAUCUCCUCACCGCGAAAAGGCGGUGAAAAGAGAAGGGACAGGAA [Usbian] (puzzle: Exclusion 1)	–	–	–	0.016	0.0107	0.0138
